Measurements as given in patent US5882644A, “Monoclonal antibodies specific for the platelet derived growth factor β receptor and methods of use thereof” (Protein Design Labs, Inc., priority 1996, dated 1999).
“Also recorded” adds a separate entry of the source.

How the values were obtained:
[1] = tested on: CHO transfectant cell line expressing PDGF-R β (CHO C4); experiment: Inhibition of PDGF BB-induced proliferation (3H-thymidine) of CHO C4 cells; type: cell-based, Chinese hamster
Experimental: To determine the ability of muM4TS.11 and muM4TS.22 to block PDGF-mediated proliferation, a CHO transfectant cell line expressing PDGF-R β (CHO C4) was generated, as described above. Proliferation of this line, as measured by incorporation of ^3 H-thymidine by DNA synthesis, is stimulated several-fold by PDGF BB. The CHO PDGF-R β transfectants were plated in a 96-well tissue culture plate at about 50,000 cells/well in Ham's F-12+10% FCS and incubated for 1-2 days. The medium was removed, and the cells were washed once with serum-free medium (Ham's F-12+1 mg/ml BSA) and incubated in this media for 1-2 days to put them in a quiescent state. The appropriate amount of antibody in serum-free medium was added, and after 1-3 hours, 50 ng/ml PDGF BB was added. After overnight incubation, 1 μCi ^3 H-thymidine was added, and after a final 4 hour incubation, the cells were harvested using a PHD cell harvester (Cambridge Technology) and analyzed with a scintillation counter.

[2] = tested on: PDGF-R β; experiment: Competitive binding with 125I-PDGF BB on transfectant cells expressing PDGF-R β; parameters: species or system human; details: 4° C.
Experimental: To determine the ability of muM4TS.11 and muM4TS.22 to block binding of PDGF BB to PDGF-R β, the following competitive binding experiments were performed. Transfectant cells expressing PDGF-R β were harvested, washed twice with cold DMEM, and resuspended at 10^6 cells/ml in DMEM. The assay was carried out in triplicate by incubating 100 μl of the cell suspension with either: 1) no antibody (to determine total binding); 2) varying concentrations of antibody; or 3) 100 ng cold PDGF BB (to saturate specific binding sites and determine non-specific binding) for 15 minutes at 4° C. Each sample received 1.0 ng ^125 I-labeled PDGF BB, and was incubated for an additional 60 min at 4° C. Unbound ^125 I-labeled PDGF BB was separated from that bound to the cell by layering the sample over a mixture of 80% dibutylphthalate, 20% olive oil in a microfuge tube, and microfuging briefly to pellet the cells through the oil mixture. The tubes were placed in dry ice to freeze the contents, the tip of the tube containing the cell pellet was cut off into a vial, and radioactivity was determined in a gamma counter.
To assess the ability of HuM4TS.22 to block the binding of PDGF BB to its receptor, competitive binding experiments of HuM4TS.22 with ^125 I-PDGF BB were performed according to the method described in Example 3.
To assess the ability of muM4TS.11 and HuM4TS.11 to block the binding of PDGF BB to the PDGF β receptor, competitive binding experiments of these antibodies with ^125 I-PDGF BB were performed according to the method described in Example 3.

[3] = tested on: PDGF-R β deletion fusion proteins; experiment: ELISA epitope mapping with PDGF-R β deletion fusion proteins; type: binding, human
Excerpt: To localize the binding sites of the M4TS antibodies on the PDGF-R, a series of PDGF-R β deletion mutants, each consisting of one or more adjacent domains of the extracellular portion of the receptor, was constructed by standard methods including PCR. The deletion constructs were each cloned into an expression plasmid (FIG. 13A) where they were fused to the constant region of the human lambda-1 immunoglobulin light chain, to facilitate detection in ELISA. The constructs were as follows (see FIG. 13B):
These PDGF-R β deletion fusion proteins were transiently expressed, by transfecting 10 μg of the respective expression plasmids into approximately 10^7 S194 mouse myeloma cells (ATCC TIB 19) using the DEAE-dextran method in accordance with the method described by Queen et al. (1984) Mol. Cell. Biol. 4:1042. After the transfected cells had died (4-5 days) and been removed by centrifugation, the culture supernatants containing the PDGF-R β deletion proteins were used in ELISA assays, 100 μl/well. First, the relative levels of the various PDGF-R β deletion proteins were measured in an ELISA where the plate was coated with goat anti-human lambda antibody (Tago) and the proteins detected with HRP-conjugated goat anti-human lambda antibody. […] To determine the ability of the antibodies to bind to each deletion protein, an ELISA was performed in which goat anti-human lambda antibody was used to coat the plate, followed by the cell supernatant and then 0.1 μg of the appropriate antibody, and then bound antibody detected with HRP-conjugated goat-anti-mouse Ig or goat-anti-human Ig antibody as appropriate (Tago). As a positive control, purified soluble PDGF-R β (Example 1) was coated directly on certain wells of the plate (denoted D1-5 in FIG. 14).

[4] = Pharmacokinetics in rats (plasma antibody by ELISA); type: in vivo, rat
Experimental: In preliminary experiments to determine the pharmacokinetics of muM4TS.11 in rats, an initial dose of antibody was injected and blood samples obtained at 1, 2, 3, 6, 12, 24, 36, and 48 hr. Antibody levels in plasma were measured by ELISA. The half-life of the antibody in rats was approximately 1 day. […] (In humans, proportionally smaller and less frequent doses are likely to be sufficient for a humanized anti-PDGF-R β antibody such as HuM4TS.11 or HuM4TS.22 to be effective, because of the expected longer half-life in humans and higher affinity for human PDGF-R β of these non-immunogenic HuAbs).

B1: muM4TS.11: murine monoclonal antibody to PDGF-R β, variable regions SEQ ID NOS:10 and 12; epitope in fourth extracellular domain (antibody, V domains shown)
VL: METETLLLWVLLLWVPGSTGDIVLTQSPPSLAVSLGQRATISCRASESVDSYGNSFMHWYQQKPGQPPKLLIYRASNLESGIPARFSGGGSRTDFTLTINPVEADDVATYYCQQSNEDPPTFGGGTKLEIK
VH: MERHWIFLFLFSVTAGVHSQVQLQQSGAEVAKPGASVKMSCKASGYTFTNCWMHWVKQRPGQGLEWIGYINPTTGYSEYNQNFKDKATLTADKSSNTAYIQLSSLTSEDSAVYYCTSNYGHYDWFANWGQGTLVT
With B1 the “inhibition of PDGF-mediated proliferation compared with another antibody” value [1] was “about two times more effectively than with HuM4TS.11”, the “inhibition of PDGF BB-induced proliferation” value ([1]; 50 ng/ml PDGF BB, sufficient antibody concentration) was “completely inhibited proliferation of the cells induced by PDGF BB; also recorded: almost completely inhibited the stimulation of proliferation by PDGF BB” and the “blocking of 125I-PDGF BB binding to PDGF-R β” value [2] was “did not; also recorded: neither muM4TS.11 nor HuM4TS.11 were able to inhibit binding of PDGF BB to its receptor”. The “binding to deletion proteins containing only first through third domains” value ([3]; 0.1 μg antibody) was “do not bind”, the “binding to protein D1-4” value ([3]; 0.1 μg antibody) was “do bind to protein D1-4” and the “binding to protein D5 (fifth domain only)” value ([3]; separate experiment) was “none of muM4TS.11 and HuM4TS.11, muM4TS.22 and HuM4TS.22 bound to it”. The “time antibody level stays above the in vitro inhibitory concentration” value ([4]; 4 mg bolus, then 2 mg IV every 24 hr for 4 days) was “at least 7 days” and the “half-life of the antibody” value ([4]; preliminary experiments, plasma) was “approximately 1 day”.
